Results on two molecules are retold here after US6015562, “Targeted forms of methyltrithio antitumor agents” (American Cyanamid Company, dated 2000).

Experiment [1] addresses T1, polymorphic epithelial mucin (PEM) (human, UniProt P15941). Put plainly: order of binding activity from all the direct binding ELISA assays on PEM.
In experiment [2] the target is T1, polymorphic epithelial mucin (PEM). Put plainly: direct binding ELISA, PEM-coated microwell plates, culture supernatant.

B1: gL1cH (CDR-grafted light chain gL1 with chimeric heavy chain; plasmids pAL47 and pHMC33) (antibody, V domains shown)
VH: QIQLQQSGPELVKPGASVKISCKASGYTFTDYYINWMKQKPGQGLEWIGWIDPGSGNTKYNEKFKGKATLTVDTSSSTAYMQLSSLTSEDTAVYFCAREKTTYYYAMDYWGQGTSVTVS
VL: DIQMTQSPSTLSASVGDRVTITCRSSKSLLHSNGDTFLYWFQQKPGKAPKLLMYRMSNLASGVPSRFSGSGSGTEFTLTISSLQPDDFATYYCMQHLEYPFTFGQGTKVEVKR
On to B1, for which, in experiment [1], the binding result is “binds”.

B2: cLgH2 (chimeric light chain with CDR-grafted heavy chain gH2; plasmids pAL52 and pAL41) (antibody, V domains shown)
VH: QIQLVQSGAEVKKPGSSVKVSCKASGYTFTDYYINWMRQAPGQGLEWIGWIDPGSGNTKYNEKFKGRATLTVDTSTNTAYMELSSLRSEDTAFYFCAREKTTYYYAMDYWGQGTLVTVSS
VL: DIVMTQAAPSVPVTPGESLSISCRSSKSLLHSNGDTFLYWFLQRPGQSPQLLIYRMSNLASGVPDRFSGSGSGTAFTLRVSRVEAEDVGVYYCMQHLEYPFTFGAGTKLELKR
Take B2: the binding result in experiment [2] was “binds”.
